Test results: US20090053203A1 (ONTHERIX, published 2009)
Ends that are not written are not given here.

What was measured:
Test in all cases: chemical cross-linking of the biotinylated peptide on chilled cells, capture on Ni-NTA plates, detection with an antibody to the marker
transferrin receptor 1 = molecular target: T1, transferrin receptor 1 (UniProt P02786 1-760, limits assumed)
T1 construct: whole, on cells
Protocol: (§1) HEK293 kidney cell line and 54 tumor cell lines obtained from the National Cancer Institute and passaged in RPMI1640 cell culture medium supplemented with 10% fetal bovine serum and 10 uM FeCl₂. Uptake of streptavidin-horseradish peroxidase (SA-HRP) conjugate and of various SA-HRP::MBD peptide complexes was determined as described (Singh et al. J Biol Chem. 279 (1):477-87 [2004]) using biotinylated MBD9 ([…]) (SEQ ID NO: 10) and MBD21 ([…]) (SEQ ID NO: 4) peptides and SA-HRP. Nuclear and cytoplasmic localization of these proteins was also determined in each case. […] In order to establish the underlying molecular mechanism for this variability, we cross-linked MBD21 peptide to the following cell surface markers at 4 degrees Celsius as previously described (Singh et al. J Biol Chem. 279 (1):477-87 [2004]): transferrin receptor 1, caveolin 1, PCNA, integrins alpha v, 2, 5 and 6, integrins beta 1, 3 and 5. […] Based on the strength of these correlations, it was possible to derive crude predictive formulae for MBD-mediated uptake based on the rate of cross-linking to surface markers. Such predictive formulas could form the basis for a diagnostic procedure to select appropriate targets for MBD-based therapies.

caveolin 1 = molecular target: T2, caveolin 1 (UniProt Q03135 2-178, limits assumed)
T2 construct: whole, on cells
T2 sequence (looked up): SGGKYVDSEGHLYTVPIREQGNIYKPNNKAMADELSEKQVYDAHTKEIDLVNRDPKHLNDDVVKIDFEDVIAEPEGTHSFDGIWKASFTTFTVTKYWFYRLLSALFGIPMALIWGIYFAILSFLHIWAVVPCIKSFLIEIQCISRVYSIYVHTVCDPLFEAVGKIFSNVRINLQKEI
Protocol: as §1

PCNA = molecular target: T3, PCNA (UniProt P12004 1-261, limits assumed)
T3 construct: whole, on cells
T3 sequence (P12004 whole entry): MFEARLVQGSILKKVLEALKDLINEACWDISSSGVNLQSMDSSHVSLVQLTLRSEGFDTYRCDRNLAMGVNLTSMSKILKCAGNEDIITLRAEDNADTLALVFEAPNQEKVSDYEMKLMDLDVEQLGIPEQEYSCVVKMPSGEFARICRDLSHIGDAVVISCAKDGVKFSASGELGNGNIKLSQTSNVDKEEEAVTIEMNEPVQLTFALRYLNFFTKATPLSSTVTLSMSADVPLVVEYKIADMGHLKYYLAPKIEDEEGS
Protocol: as §1

Measured: binding result

T1 sequence (P02786 whole entry): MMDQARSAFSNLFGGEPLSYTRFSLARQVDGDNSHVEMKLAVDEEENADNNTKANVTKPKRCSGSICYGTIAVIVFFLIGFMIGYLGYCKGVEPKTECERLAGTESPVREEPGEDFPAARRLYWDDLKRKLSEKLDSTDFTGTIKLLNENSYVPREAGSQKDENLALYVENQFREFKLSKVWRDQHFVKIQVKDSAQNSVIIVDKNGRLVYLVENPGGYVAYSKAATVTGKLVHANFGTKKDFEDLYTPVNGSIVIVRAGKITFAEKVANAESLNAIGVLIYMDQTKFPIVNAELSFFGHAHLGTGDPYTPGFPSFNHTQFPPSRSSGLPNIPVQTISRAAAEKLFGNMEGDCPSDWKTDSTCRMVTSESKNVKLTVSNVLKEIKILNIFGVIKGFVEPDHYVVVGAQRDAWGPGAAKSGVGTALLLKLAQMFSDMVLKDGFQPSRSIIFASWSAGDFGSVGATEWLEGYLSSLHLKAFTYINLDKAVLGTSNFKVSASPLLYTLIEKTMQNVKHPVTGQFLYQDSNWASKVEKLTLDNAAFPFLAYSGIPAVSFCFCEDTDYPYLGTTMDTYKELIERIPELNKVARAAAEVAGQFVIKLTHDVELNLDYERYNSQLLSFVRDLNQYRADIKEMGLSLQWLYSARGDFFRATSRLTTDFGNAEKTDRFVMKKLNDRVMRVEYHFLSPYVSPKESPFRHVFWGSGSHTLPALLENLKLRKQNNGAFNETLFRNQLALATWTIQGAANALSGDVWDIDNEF

KKGFYKKKQCRPSKGRKRGFCWAVDKYG (cysteine pairing not given here; also: biotinylated, position not given here, also called biotinylated MBD21 peptide) [MBD21 peptide (biotinylated)]
binds: all assays above
